From patent US20230295343A1 (NINGBO COMGEN BIOTECH, published 2023)

T1: human FXII (human, UniProt P00748 20-615)
T1 construct: Bought protein; also called factor XII; natural human FXII
T1 sequence (looked up): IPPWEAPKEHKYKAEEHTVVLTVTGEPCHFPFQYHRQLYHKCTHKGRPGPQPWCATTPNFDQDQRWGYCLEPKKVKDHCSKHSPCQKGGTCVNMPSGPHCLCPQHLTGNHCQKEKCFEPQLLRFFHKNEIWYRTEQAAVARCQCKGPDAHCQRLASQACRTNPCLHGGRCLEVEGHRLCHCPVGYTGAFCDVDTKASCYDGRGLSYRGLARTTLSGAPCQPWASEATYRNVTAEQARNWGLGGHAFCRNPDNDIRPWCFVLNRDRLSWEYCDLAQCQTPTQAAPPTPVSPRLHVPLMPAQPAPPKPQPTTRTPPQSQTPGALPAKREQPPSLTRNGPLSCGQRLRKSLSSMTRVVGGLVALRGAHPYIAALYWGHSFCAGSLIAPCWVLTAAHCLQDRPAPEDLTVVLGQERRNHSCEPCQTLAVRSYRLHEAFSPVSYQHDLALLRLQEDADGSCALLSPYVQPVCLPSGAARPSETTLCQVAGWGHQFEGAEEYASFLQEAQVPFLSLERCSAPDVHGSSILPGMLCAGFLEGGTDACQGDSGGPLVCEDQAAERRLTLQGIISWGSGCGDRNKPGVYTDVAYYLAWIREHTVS

T2: biotinylated FXII protein (UniProt P00748 20-615, biotinylated (sites not given))
T2 sequence (looked up): T1 sequence (looked up)

B1: nanobody N4-38 (VHH)
VHH: QVQLVESGGGLVQAGGSLRLSCAASGRTGNAYRMGWFRQAPGKEREFVAAISWNGDSTNYADSVKGRFTISRDNAKNTVYLQMNSLKPEDTAVYYCAVVKGIGVPPNMYDYWGQGTQVTVSS
notes: Alpaca nanobody expressed in E. coli from PET26b; also called N38; N4-38 antibody
B2: nanobody A5-8 (VHH)
VHH: QVQLVESGGGLAQVGGSLRLSCAASGSTFSFKSMGWYREAPGNQRELVAAISSKGIMTNSDSVKGRFTISRDNAKNTVDLHLNNLKPEDTAVYYCNVVEVGVGGLVNVYWGQGTQVTVSS
notes: not shown: 6xHis tag from vector PET26b
B3: nanobody N4-44 (VHH)
VHH: QVQLVESGGGLVQAGGSLRLSCAASGSDFSINAMGWYRQAPGKERELVATISSGGSTYYADSVKGRFTISRDNAKNTLYLHMNTLKPEDTAMYYCAILKGATPGYWGQGTQVTVSS
notes: as for B2

How the values were obtained:
human FXII = molecular target: T1, human FXII; assay: ELISA, plate coated with human FXII at 1 ug/mL, nanobody dilutions, anti-6xHis-HRP
Protocol: The titer detection method in Example 1 was as follows: An ELISA plate was coated with human FXII at a protein concentration of 1 μg/mL overnight at 4° C.; then the ELISA plate was washed with PBST buffer and blocked with 5% skimmed milk powder at room temperature for 2 h; the ELISA plate was washed with PBST buffer (which was prepared with 1 L of PBS and 500 μL of Tween 20), then nanobodies at different dilutions were added, and the ELISA plate was incubated for 2 h at room temperature; the ELISA plate was washed with PBST buffer, then an […] (Abcam) was added, and the ELISA plate was incubated for 1 h at room temperature in the dark; the ELISA plate was washed with PBST buffer, a tetramethylbenzidine (TMB) (R&D Systems) substrate solution was added, and a chromogenic reaction was conducted for 5 min to 10 min; and a stop solution (sulfuric acid with a concentration of 2 M) was added, and an OD value of each well was determined at 450 nm by a microplate reader.

[1] = molecular target: T2, biotinylated FXII protein; assay: BLI (Fortebio Octet), biotinylated FXII loaded on the biosensor, N4-38 at 50, 20 and 10 ug/mL, 37 C
Protocol: (1) A Fortebio Octet special solution M (a PBST solution including BSA with a mass fraction of 0.5%) was prepared, filtered through a 0.22 μm filter membrane, and stored at 4° C. for later use; (2) a biotinylated FXII protein was diluted to 10 μg/mL, a nanobody N4-38 was diluted to 50 μg/mL, 20 μg/mL, and 10 μg/mL, and resulting samples each were added; (3) a biosensor was placed in a corresponding clean well of a spare box, and […] of the Fortebio Octet special solution M was added to each well corresponding to the biosensor; (4) a program was set as follows: first stage Baseline: 60 s, second stage Loading: 200 s, third stage Baseline 2: 100 s, fourth stage Association: 300 s, fourth stage Dissociation: 300 s, and reaction temperature during the whole process: 37° C.; and (5) after a reaction was completed, data analysis was conducted by software.

| Binder | titer (human FXII) | Kd [1] [nM] |
| --- | --- | --- |
| B1 | 220 | 3.07 |
| B2 | 220 | – |
| B3 | 220 | – |
